Experimental data from PMC4148261.
Where no end group is shown, it is not given here.

Biological target: Recombinant His-tagged Hsp70 protein, equivalent to HSPA1A
Assay: ELISA; peptide ELISA: heat shock proteins coated on MaxiSorp plates (1 µg/well/100 µl, carbonate buffer pH 9.6, 4°C overnight), blocked with PBS 2% BSA; CF-labeled peptides 100, 50, 25 ng/ml, 27°C 30 min; fluorescence counts read

## TKDNNLLGRFELSG (also: carboxyfluorescein (CF) label, position not given here) [carboxy-fluorescein (CF-) labeled 14-mer tumor penetrating peptide (TPP)]
  fluorescence counts: 1200 counts
